Reference: publication PMC2504287 (Nucleic Acids Research, 2008)

Legend:
[1] = target: the molecule itself
native gel or EMSA = target: the molecule itself; experiment: native gel or EMSA
[2] = target: T1, C.Esp1396I controller protein (UniProt Q8GGH0 1-79); experiment: EMSA
T1 sequence: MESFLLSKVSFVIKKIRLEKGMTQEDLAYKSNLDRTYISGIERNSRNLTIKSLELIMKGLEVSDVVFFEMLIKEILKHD

B1: C.Esp1396I controller protein (wild type) (natural protein)
chain: GSHMESFLLSKVSFVIKKIRLEKGMTQEDLAYKSNLDRTYISGIERNSRNLTIKSLELIMKGLEVSDVVFFEMLIKEILKHD
- Kd [1]: ~600 nM

B2: C.Esp1396I E25A mutant (natural protein)
chain: GSHMESFLLSKVSFVIKKIRLEKGMTQADLAYKSNLDRTYISGIERNSRNLTIKSLELIMKGLEVSDVVFFEMLIKEILKHD
- binding result (native gel or EMSA): binds

B3: OL (OR mutated) (dsDNA)
DNA 1: ATGTGACTTATAGTCCGTCTAGCCTAGCCTAGCCT
DNA 2: AGGCTAGGCTAGGCTAGACGGACTATAAGTCACAT
- binding result [2]: binds
